Starred links: 1 amine or outer side, 2 acyl side, 3 side chain; linkers in the order of their positions; H or OH if unused. Positions of bridges follow the written chain, without caps; N, C: chain ends. Non-standard residues stand in square brackets, D forms with d. Primed or numbered codes have the meaning given here. B5(11) = 2,2-bis(4-pentenyl)glycine = 2-amino-2-(pent-4-en-1-yl)hept-6-enoic acid (stitching residue, bears both staples), C=CCCCC(CCCC=C)(N[*:1])C(=O)[*:2]; RdN″ = (R)-4-(((allyloxy)carbonyl)(methyl)amino)-2-amino-2-methylbutanoic acid (stapling residue), C=CCOC(=O)N(C)CC[C@@](C)(N[*:1])C(=O)[*:2]; B5(4) = 2,2-bis(4-pentenyl)glycine = 2-amino-2-(pent-4-en-1-yl)hept-6-enoic acid (stitching residue), C=CCCCC(CCCC=C)(N[*:1])C(=O)[*:2]; RdN = (R)-4-(((allyloxy)carbonyl)(methyl)amino)-2-amino-2-methylbutanoic acid, C=CCOC(=O)N(C)CC[C@@](C)(N[*:1])C(=O)[*:2]; B5″ = 2,2-bis(4-pentenyl)glycine, stitching residue, C=CCCCC(CCCC=C)(N[*:1])C(=O)[*:2]; B5(28) = 2,2-bis(4-pentenyl)glycine, C=CCCCC(CCCC=C)(N[*:1])C(=O)[*:2]; S7 = C[C@@](CCCCCC=[*:3])(N[*:1])C(=O)[*:2]; Bta = N[C@@H](Cc1csc2ccccc12)C(=O)O; αAllylPro = C=CC[C@@]1(C(=O)O)CCCN1; NMeH = CN[C@@H](Cc1c[nH]cn1)C(=O)O; S8 = C=CCCCCCC[C@](C)(N)C(=O)O; NMeS = CN[C@@H](CO)C(=O)O; Aib = CC(C)(N)C(=O)O
T1: full-length beta-Catenin (Uniprot ID P35222) (Homo sapiens (Human), UniProt P35222 1-781)
T1 construct: The assay protocol says 'full-length beta-Catenin (Uniprot ID P35222)'; also called bCat; B-Catenin
T1 sequence: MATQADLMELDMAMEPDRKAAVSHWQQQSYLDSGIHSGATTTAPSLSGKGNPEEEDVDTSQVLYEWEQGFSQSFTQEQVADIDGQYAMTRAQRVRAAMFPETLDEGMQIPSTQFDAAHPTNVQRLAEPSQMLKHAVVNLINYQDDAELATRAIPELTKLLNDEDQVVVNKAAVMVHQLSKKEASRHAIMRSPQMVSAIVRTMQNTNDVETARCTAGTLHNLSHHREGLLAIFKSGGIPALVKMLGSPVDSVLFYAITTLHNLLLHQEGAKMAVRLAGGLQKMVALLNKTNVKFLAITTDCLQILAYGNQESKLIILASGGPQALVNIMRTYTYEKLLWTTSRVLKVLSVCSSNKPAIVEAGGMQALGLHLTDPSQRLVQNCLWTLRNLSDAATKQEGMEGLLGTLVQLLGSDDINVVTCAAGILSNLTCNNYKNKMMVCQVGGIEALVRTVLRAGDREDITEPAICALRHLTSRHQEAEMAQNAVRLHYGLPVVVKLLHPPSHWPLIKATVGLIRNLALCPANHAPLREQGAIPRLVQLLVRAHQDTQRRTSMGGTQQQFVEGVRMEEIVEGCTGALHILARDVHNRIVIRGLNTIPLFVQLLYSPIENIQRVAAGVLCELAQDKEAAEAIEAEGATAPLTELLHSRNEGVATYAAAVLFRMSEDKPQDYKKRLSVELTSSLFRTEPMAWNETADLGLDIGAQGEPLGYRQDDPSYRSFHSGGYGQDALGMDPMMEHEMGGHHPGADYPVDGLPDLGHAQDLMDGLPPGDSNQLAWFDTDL

T2: full-length beta-Catenin (Uniprot ID P35222) (Homo sapiens (Human), UniProt P35222 2-781)
T2 construct: Also used here for the endogenous beta-catenin of the DLD1 TCF reporter cells; also called bCat; B-Catenin
T2 sequence: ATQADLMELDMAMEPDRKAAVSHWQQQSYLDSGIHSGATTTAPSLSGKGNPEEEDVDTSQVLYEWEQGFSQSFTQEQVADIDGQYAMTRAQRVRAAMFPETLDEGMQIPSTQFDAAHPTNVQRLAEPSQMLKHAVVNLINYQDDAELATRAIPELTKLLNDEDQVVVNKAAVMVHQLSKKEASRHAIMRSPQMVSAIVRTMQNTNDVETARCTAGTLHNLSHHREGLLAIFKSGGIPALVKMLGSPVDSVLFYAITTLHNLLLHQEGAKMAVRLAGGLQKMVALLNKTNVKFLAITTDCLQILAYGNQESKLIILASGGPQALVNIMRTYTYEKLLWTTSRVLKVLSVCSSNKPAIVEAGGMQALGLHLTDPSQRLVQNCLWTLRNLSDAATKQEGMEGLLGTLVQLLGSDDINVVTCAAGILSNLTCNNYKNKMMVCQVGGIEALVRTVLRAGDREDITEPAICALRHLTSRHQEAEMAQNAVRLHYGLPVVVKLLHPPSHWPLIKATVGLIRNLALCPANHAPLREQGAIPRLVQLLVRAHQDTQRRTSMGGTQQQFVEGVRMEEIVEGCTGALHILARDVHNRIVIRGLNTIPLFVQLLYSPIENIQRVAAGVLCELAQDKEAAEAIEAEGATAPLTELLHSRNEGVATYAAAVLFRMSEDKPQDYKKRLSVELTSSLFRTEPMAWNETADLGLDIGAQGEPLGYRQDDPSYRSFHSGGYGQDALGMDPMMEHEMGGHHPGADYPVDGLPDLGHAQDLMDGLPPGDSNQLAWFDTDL

B1: I-144 (peptide)
peptide: Ac-[αAllylPro]DA[B5(4)]DEAAFV[S8]F[Bta]Q-NH2
modifications: staple 1-4, 4-11
notes: also called Ac-PL3-Asp-Ala-B5-Asp-Glu-Ala-Ala-Phe-Val-S8-Phe-BztA-Gln-NH2
B2: I-147 (peptide)
peptide: Ac-[Aib]DI[RdN]DEAAFQ[S7]FW-NH2
modifications: staple 4-11
notes: also called Ac-Aib-Asp-Ile-RdN-Asp-Glu-Ala-Ala-Phe-Gln-S7-Phe-Trp-NH2
B3: I-148 (peptide)
peptide: Ac-ADI[RdN″]DEAAFQ[S7]FW-NH2
modifications: staple 4-11
notes: also called Ac-Ala-Asp-Ile-RdN-Asp-Glu-Ala-Ala-Phe-Gln-S7-Phe-Trp-NH2
B4: I-154 (peptide)
peptide: ADIXDEAAFAXFWA
modifications: not fully specified; N-terminal acetyl (Ac); RdN at 4 and S7 at 11 (staple RdN-S7 by olefin metathesis); C-terminal amide (NH2)
notes: also called Ac-Ala-Asp-Ile-RdN-Asp-Glu-Ala-Ala-Phe-Ala-S7-Phe-Trp-Ala-NH2
B5: I-749 (peptide)
peptide: XDLXDEAAFNXFXT
modifications: not fully specified; as printed: Ac-PL3-Asp-Leu-B5-Asp-Glu-Ala-Ala-Phe-Asn-S8-Phe-BztA-Thr-NH2; N-terminal Ac, C-terminal NH2; stapled by olefin metathesis PL3(1)-B5(4) and B5(4)-S8(11)
notes: Stapled peptide composition
B6: I-748 (peptide)
peptide: XDLXDEAAFNXFXT
modifications: not fully specified; as printed: Ac-PL3-Asp-Leu-B5-Asp-Glu-Ala-Ala-Phe-Asn-S8-Phe-BztA-Thr-NH2; N-terminal Ac, C-terminal NH2; stapled by olefin metathesis PL3(1)-B5(4) and B5(4)-S8(11)
notes: Stapled peptide composition

Biological target: T1, full-length beta-Catenin (Uniprot ID …)
Assay: fluorescence polarization competition; full-length beta-catenin, competitor 5FAM-TCF4(10-53) probe
Method in brief: (§1)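 Fluorescence polarization was read in duplicate after the plate sat 60 minutes at 20° C. shielded from light. Values come from fitting to a 1:1 binding model with hill slope.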

IC50 [nM]	Binder
146	B1
1640	B2
2770	B3
5000	B4

Biological target: T2, full-length beta-Catenin (Uniprot ID …)
Assay: as above
Method in brief: as §1

EC50 [nM]	Binder
1530	Ac-[αAllylPro]DL[B5(4)]DEAAFN[S8]F[Bta][NMeS]-NH2 (staple 1-4, 4-11; also: earlier-eluting HPLC peak (staple isomer), Stapled peptide composition) [I-759]
43	Ac-[αAllylPro]DL[B5(4)]DEAAFN[S8]F[Bta]S-NH2 (staple 1-4, 4-11; also: olefin E/Z not assigned, earlier-eluting staple isomer, Stapled peptide composition) [I-750]
64	Ac-[αAllylPro]DL[B5(4)]DEAAFN[S8]F[Bta][dN]-NH2 (staple 1-4, 4-11; also: earlier-eluting HPLC peak (staple isomer), Stapled peptide composition) [I-757]
2390	Ac-[αAllylPro]DL[B5(11)]DEAAFN[S8]F[Bta][NMeH]-NH2 (staple 1-4, 4-11; not fully specified, Stapled peptide composition) [I-747]
115	Ac-[αAllylPro]DL[B5(4)]DEAAFN[S8]F[Bta][dT]-NH2 (staple 1-4, 4-11; also: earlier-eluting HPLC peak (staple isomer), Stapled peptide composition) [I-754]
40	B5
47	Ac-[αAllylPro]DL[B5(4)]DEAAFN[S8]F[Bta][dN]-NH2 (staple 1-4, 4-11; also: later-eluting HPLC peak (staple isomer), Stapled peptide composition) [I-758]
88	Ac-[αAllylPro]DL[B5(4)]DEAAFN[S8]F[Bta][dT]-NH2 (staple 1-4, 4-11; also: later-eluting HPLC peak (staple isomer), Stapled peptide composition) [I-755]
54	B6
29	Ac-[αAllylPro]DL[B5(28)]DEAAFN[S8]F[Bta]S-NH2 (staple 1-4, 4-11, Stapled peptide composition) [I-751]
608	Ac-[αAllylPro]DL[B5″]DEAAFN[S8]F[Bta][NMeS]-NH2 (staple 1-4, 4-11, Stapled peptide composition) [I-760]
